Test results published in patent EP2646050B1 (mAB-Factory GmbH, dated 2016).

How the values were obtained:
Test in all cases: peptide SPOT membrane
[1] = target: 15mer peptide 55 of H5 (A/Anhui/1/2005) (Influenza A virus A/Anhui/1/2005 (H5N1))
[2] = target: 15mer peptide 56 of H5 (A/Anhui/1/2005) (Influenza A virus A/Anhui/1/2005 (H5N1))
[3] = target: 15mer peptide 57 of H5 (A/Anhui/1/2005) (Influenza A virus A/Anhui/1/2005 (H5N1))

Measured: binding result

B1: scFv-murine IgG1 Fc fusion of clone 8 (JM6_SC-D3) (Fc fusion)
chain: MAAVTLDESGGGLQKPGGGLSLVCKASGFPFSSYSMQWVRQAPGKGLEWVAGIGNAGSYTGYGAAVKGRATISRDNGQSTVRLQLNNLRAEDTGTYYCAKSAYAGSCAGCVDSIDAWGHGTEVMVSSGSASAPKLEEGEFSEARVALTQPSSVSANPGETVKITCSGDDSWYGWYQQKSPGSAPVTVIYYNNNRPSDIPLRFSGSTSGSTSTLTITGVQADDEAVYFCGSWDRSSGAGIFGAGTTLTVLGAA
no binding: all assays above
